According to patent publication US20210292393A1:
Where “and” joins values, the source holds several entries; their conditions need not be identical. Identical values can stand only once.

Legend:
Settings in all cases: remark: other sources report otherwise
[1] = target: SARS-CoV-2 full length spike protein (wild-type), conjugated to optically encoded beads (SARS-CoV-2), P0DTC2
[2] = target: SARS-CoV-2 full length spike protein, wild type, expressed on the surface of CHO cells (SARS-CoV-2), P0DTC2
[3] = target: SARS-CoV-2 full length spike protein, wild type, expressed on the surface of transiently transfected CHO cells (SARS-CoV-2), P0DTC2
[4] = target: SARS-CoV-2 spike protein (SARS-CoV-2), P0DTC2
[5] = target: T1, SARS-CoV-2 full length spike protein (wild type) (SARS-CoV-2), P0DTC2
[6] = target: T1, SARS-CoV-2 full length spike protein …; remark: listed apart in the source
[7] = target: SARS-CoV-2 spike (S) protein (SARS-CoV-2), P0DTC2
[8] = target: SARS-CoV-2 full length spike protein (wild-type) (SARS-CoV-2), P0DTC2
[9] = target: SARS-CoV-2 full length spike protein (wild type), conjugated to beads (SARS-CoV-2), P0DTC2
[10] = target: SARS-CoV-2 spike (S) protein, full length, wild type, expressed on the surface of CHO cells (SARS-CoV-2), P0DTC2
[11] = target: SARS-CoV-2 spike (S) protein, full length, wild type (SARS-CoV-2), P0DTC2

B1: antibody 544 (antibody, V domains shown)
VH: QVQLQQWGAGLLKPSETLSLTCAVYGGSFSGYYWSWIRQPPGKGLEWIGEINHSGSTNYNPSLKSRVTISVDTSKNQFSLKLSSVTAADTAVYYCARGFKWFGELLFGAQGTLVTVSS
VL: not shown
median fluorescence fold over isotype (fold over isotype) [1]: 639
median fluorescence fold over isotype control (fold over isotype) [2]: 2.48

B2: antibody 389 (antibody, V domains shown)
VH: QVQLVESGGGVVQPGRSLRLSCAASGFTFSSYAMHWVRQAPGKGLEWVAVISYDGSNKYYADSVKGRFTISRDNSKNTLYLQMNSLRAEDTAVYYCASQGRMYVRGVDYGVYWGQGTLVTVSS
VL: NFMLTQPHSVSESPGKTVTISCTGSSGSIASNYVQWYQQRPGSAPTTVIYEDNQRPSGVPDRFSGSIDSSSNSASLTISGLKTEDEADYYCQSYDSSKISHAVFGGGTQLTVL
median fluorescence fold over isotype control (fold over isotype) [3]: 0.72
Kd [4]: < 0.0222 nM
koff [4]: < 1e-05 s⁻¹
kon [4]: 450000 M⁻¹ s⁻¹

B3: antibody 269 (antibody, V domains shown)
VH: QLQLQESGPGLVKPSETLSLTCTVSGGSISSSSYYWGWIRQPPGKGLEWIGNIYYSGSTYYNPSLKSRVTISVDTSKNQFSLKLSSVTAADTAVYYCAGEELDIVATIYSSRYYYYGMDVWGQGTTVTVSS
VL: QSALTQPASVSGSPGQSITISCTGTSSDVGGYNYVSWYQQHPGKAPKLMIYEVSNRPSGVSNRFSGSKSGNTASLTISGLQAEDEADYYCSSYTSTSTLVFGGGTKLTVL
binding signal, bead assay (fold over isotype) [5]: 480 and 191 and 188
median fluorescence intensity, fold over isotype control (fold over isotype) [6]: 13.3 and 9.09
Kd [7]: 7.29 nM
koff [7]: 0.000444 s⁻¹
kon [7]: 60900 M⁻¹ s⁻¹

B4: antibody 279 (antibody, V domains shown)
VH: EVQLLESGGGLVQPGGSLRLSCAASGFTFSSYAMSWVRQAPGKGLEWVSTISGSGGNTYYADSVKGRFTISRDNSKNTLYLQMNSLRAEDTAVYYCAKDLFQGLYYGSGEFDYWGQGTLVTVSS
VL: QSALTQPASVSGSPGQSITISCTGTSSDVGAYNYVSWYQQHPGKAPKLMIYGVSNRPSGVSNRFSGSKSGNTASLTISGLQAEDEADYYCSSYTSSSTRVFGTGTKVTVL
binding signal, bead assay (fold over isotype) [5]: 3.09 and 1.36 and 1.11
median fluorescence intensity, fold over isotype control (fold over isotype) [6]: 8.59 and 3.84
Kd [7]: 52.3 nM
koff [7]: 0.00195 s⁻¹
kon [7]: 37300 M⁻¹ s⁻¹

B5: antibody 413 (antibody, V domains shown)
VH: EVQLVESGGGLIQPGGSLRLSCAASGFTVSGNYMNWVRQAPGKGLEWVSVIYSGGSTYYADSVKGRFTISRANSKNTLYLQMNSLRAEDTAVYYCASTSLVRGLIILYYYGMDVWGQGTTVTVSS
VL: QSALTQPASVSGSPGQSITISCTGTSSDVGGYNYVSWYQQHPGKAPKLMIYEVSNRPSGVSNRFSGSKSGNTASLTISGLQAEDEADYYCSSYTSSSTLVFGGGTKLTVL
Binding to Wild-Type SARS-CoV-2 (Bead Assay) [8]: 969 and 367 and 416
median fluorescence fold over isotype control (fold over isotype) [3]: 1.11
Kd [4]: < 0.0338 nM
koff [4]: < 1e-05 s⁻¹
kon [4]: 296000 M⁻¹ s⁻¹

B6: antibody 392 (antibody, V domains shown)
VH: QVQLQESGPGLVKPSGTLSLTCAVSGGSISSSNWWSWVRQPPGKGLEWIGEIYHSGSTNYNPSLKSRVTISVDKSKNQFSLKLSSVTAADTAVYYCARGWRATLYGMDVWGQGTTVTVSS
VL: QSALTQPASVSGSPGQSITISCTGTSSDVGSYNLVSWYQQHPGKAPKLMIYEVSKRPSGVSNRFSGSKSGNTASLTISGLQAEDEADYYCCSYAGSSTWVFGGGTKLTVL
binding signal, bead assay (fold over isotype) [9]: 509

B7: antibody 390 (antibody, V domains shown)
VH: EVQLVESGGGLIQPGGSLRLSCAASGFTVSSNYMSWVRQAPGKGLEWVSIIYSGGSTYYADSVKGRFTISRDNSKNTLYLQMNSLRAEDSAVYSCATTMVRGLIISYYYGMDVWGQGTTVTVSS
VL: QSALTQPASVSGSPGQSITISCTGTSSDVGGYNYVSWYQQHPGKAPKLMIYEVSNRPSGVSNRFSGSKSGNTASLTISGLQAEDEADYYCSSYTSSSTLVFGGGTKLTVL
binding signal, bead assay (fold over isotype) [9]: 637 and 341 and 318
median fluorescence fold over isotype control (fold over isotype) [3]: 0.73
Kd [4]: 0.153 nM
koff [4]: 1.97e-05 s⁻¹
kon [4]: 129000 M⁻¹ s⁻¹

B8: antibody 325 (antibody, V domains shown)
VH: QVQLQESGPGLVKPSQTLSLTCTVSGGSISGGGYYWSWIRQHPGKGLEWIGYIYYSGSTYYNPSLQSRVTISVDTSKNQFSLKLSSVTAADTAVYYCARVGTSSVWYFDYWGQGTLVTVSS
VL: QSALTQPRSVSGSPGQSVTISCTGTSSDVGGYNYVSWYQQHPGKAPKLMIYDVTKRPSGVPDRFSGSKSGNTASLTISGLQAEDEADYYCSSYAGSWVFGGGTKLTVL
median fluorescence fold over isotype (fold over isotype) [10]: 1.14 and 1.08
Kd [7]: 7.36 nM
koff [7]: 0.000154 s⁻¹
kon [7]: 20900 M⁻¹ s⁻¹

B9: antibody 538 (antibody, V domains shown)
VH: QLQLQESGPGLVKPSETLSLTCTVSGGSISSSSYYWGWIRQPPGKGLEWIGSINYSGSTYYNPSLKSRVTISVDTSKNQFSLKLSSVTAADTAVYYCARYHDYGDDYWGQGTLVTVSS
VL: QLVLTQSPSASASLGASVKLTCTLSSGHSRYAIAWHQQQPEKGPRYLMKLNSDGSHSKGDGIPDRFSGSSSGAERYLTISSLQSEDEADYYCQTWGTGIQVFGGGTKLTVL
median fluorescence fold over isotype (fold over isotype) [1]: 607
median fluorescence fold over isotype control (fold over isotype) [2]: 1.96

B10: antibody 337 (antibody, V domains shown)
VH: QVQLVESGGGVVQPGRSLRLSCAASGFTFSSYGMHWVRQAPGKGLEWVAIIWYDGSNKYYADSVKGRFTISRDNSKNTLYLQMNSLRAEDTAVYYCAKDTGGYCSGGSCYPESYFDYWGQGTLVTVSS
VL: SYVLTQPPSVSVAPGKTARITCGGNNIGSKSVHWYQQKPGQAPVLVIYYDSDRPSGIPERFSGSNSGNTATLTINRVEAGDEADYYCQVWDGSSDHLYVFGTGTKVTVL
median fluorescence intensity fold over isotype (fold over isotype control) [5]: 756
median fluorescence fold over isotype (fold over isotype) [10]: 2.08

B11: antibody 416 (antibody, V domains shown)
VH: EVQLVESGGGLVQPGRSLRLSCAASGFTFDDYAMHWVRQAPGKGLEWVSGISWNSGSIGYADSVKGRFTISRDNAKNSLYLQMNSLRAEDTALYYCAKDLAWLSGGMDVWGQGTTVTVSS
VL: not shown
Binding to Wild-Type SARS-CoV-2 (Bead Assay) [8]: 110

B12: antibody 396 (antibody, V domains shown)
VH: QVQLQQWGAGLLKPSETLSLTCAVYGGSFSGYYWSWIRQPPGKGLEWIGEIIHSGSTNYNPSLKSRVTISVDTSKNQFSLKLSSVTAADTAVYYSARRTGLLWFREGSYYFDYWGQGTLVTVSS
VL: DIQMTQSPSSLSASVGDRVTITCRASQGIRNDLGWYQQKPGKAPKRLIYAASSLQSGVPSRFSGSGSGTEFTLTISSLQPEDFATYYCLQHNSYPLTFGGGTKVEIK
binding signal, bead assay (fold over isotype) [9]: 553

B13: antibody 322 (antibody, V domains shown)
VH: EVQLVESGGGLVQPGGSLRLSCAASGFTFSSYWMSWVRQAPGKGLEWVANIKQDGSEKYYVDSVKGRFTISRDNAKNSLYLQMNSLRAEDTAVYYCARDEDVAAALDYWGQGTLVTVSS
VL: SYVLTQPPSVSVAPGKTARITCGGNNIGSKSVHWYQQKPGQAPVLVIYYDSDRPSGIPERFSGSNSGNTATLTISRVEAGDEADYYCQVWDSSSDHPERVFGGGTKLTVL
median fluorescence fold over isotype (fold over isotype) [10]: 4.94 and 1.65
Kd [7]: 21.1 nM
koff [7]: 0.000401 s⁻¹
kon [7]: 19000 M⁻¹ s⁻¹

B14: antibody 362 (antibody, V domains shown)
VH: QVQLVESGGGVVQPGRSLRLSCAASGFNLSNYAMHWVRQASGKGLEWVSLISYDGSVKYYTDSVKGRFTVSGDNSKNTLFLQMNSLRPDDSALYYCVRGGVSGPNSFDMWGQGTTVTVSS
VL: DVVMTQSPLSLPVTLGQPATISCRSSQSLVYSDGNTYVNWFQQRPGQSPRRLIYQVSIRASGVPDRFSGSGSGTDFALKISRVEAEDVGVYYCMQGTHWPVTFGQGTKVEIK
median fluorescence intensity fold over isotype (fold over isotype control) [5]: 503
median fluorescence fold over isotype (fold over isotype) [10]: 9.45

B15: anti-SARS-CoV-2 antibody 485 (antibody, V domains shown)
VH: QVQLQESGPGLVKPSGTLSLTCAVSGASISSSNWWSWVRQPPGKGLEWIGEIYHSGSTNYNPSLKSRVTISVDKSKNQFSLKLSSVTAADTAVYYCARRSYYGSGSYYPFDYWGQGTLVTVSS
VL: QSALTQPASVSGSPGQSITISCTGTSSDVGSYNLVSWYQQHPGKAPKLMIYEGRKRPSGVSNRFSGSKSGNTASLTISGLQAEDEADYYCCSYAGSSTYVFGTGTKVTVL
median fluorescence fold over isotype (fold over isotype) [11]: 510

B16: antibody 444 (antibody, V domains shown)
VH: QVQLVESGGGLVKPGGSLRLSCAASGFTFSDYYMSWIRQAPGKGLEWVSYISSSGSTIYYADSVKGRFTISRDNAKNSLYLQMNSLRAEDTAVYYCARERKVVVAATRNYYYYYGMDVWGQGTTVTVSS
VL: SYELTQPPSVSVSPGQTARITCSGDALPKQYAYWYQQKPGQAPVLVIYKDSERPSGIPERFSGSSSGTTVTLTISGVQAEDEADYYCQSADSSTWVFGGGTKLTVL
Binding to Wild-Type SARS-CoV-2 (Bead Assay) [8]: 0.97 and 0.91 and 0.9
Kd [4]: 27.2 nM
koff [4]: 0.000717 s⁻¹
kon [4]: 26400 M⁻¹ s⁻¹

B17: antibody 315 (antibody, V domains shown)
VH: QVQLVQSGSELKKPGASVKLSCQASGYSFTNHAMNWVRQAPGQGLEWMGWINTNTGNPTYAQGFTGRFVFSLDTSVSTTYLHISSLKAEDTAVYYCARASARPGVATNLDFWGQGTLVVVSS
VL: DIQMTQSPSSLSASVGDRVTITCRASQNIDNYLNWYQQKPGKAPKLLIYAASRLHSGVPSRFSGSGSGTDFTLIISSLQPEDLATYYCQQSYSNPLTFGPGTKVDIR
median fluorescence intensity fold over isotype (fold over isotype control) [5]: 592
median fluorescence intensity, fold over isotype control (fold over isotype) [6]: 8.85
